Data reported in patent publication US20070041977A1 (AFFIMED THERAPEUTICS, published 2007).
No end group written: not given here.

Assays:
[1] = target: T1, LRP peptide PSVPIQQFPTEDWSA (synthesized on a cellulose membrane); assay: peptide array on cellulose membrane, scFv 1:5000
T1 peptide: PSVPIQQFPTEDWSA
Protocol: (§1) The N-terminus of each peptide was displaced by 3 amino acids in relation to the previous peptide, so that each peptide overlapped with the previous peptide by 12 amino acids. The synthesis of the peptides was carried out on a cellulose membrane.

[2] = target: T2, LRP peptide TEDWSAAPTAQATEW (synthesized on a cellulose membrane); assay: peptide array on cellulose membrane, scFv 1:5000
T2 peptide: TEDWSAAPTAQATEW
Protocol: as §1

[3] = target: T3, recombinant human LRP::FLAG expressed in BHK cells transfected with SFV1-huLRP-FLAG (human, UniProt P08865 2-295); assay: Western Blot of total extracts of transfected BHK cells
T3 construct: whole, on cells; also called human 37 kDa LRP::FLAG; rec; LRP::FLAG
Protocol: (§2) BHK cells were either not transfected (n.t.) or transfected in the manner known to the person skilled in the art in the specialty with the rec. Semliki forest virus (SFV) RNAs SFV1-huLRP-FLAG or SFV1-mol.RP::FLAG. The method of preparation of rec. SFV RNA, the transfection and the analysis by Western Blotting or immunofluorescence (FIG. 12) or FACS (FIG. 13) have already been described (Gauczynski et al., 2002; Gauczynski et al., 2001b). 24 h post-transfection, total cell extracts were analyzed by Western Blotting. […] The control used was the anti-LRP antibody mLRP43512 (A), and an anti-mouse IgG-HRP-coupled secondary antibody. As a loading control, the β-actin level was determined. To this end, an anti-β-actin antibody (Chemicon) was employed. Detection was carried out by chemiluminescence (Western Lightning, NEN). […] LRP::FLAG.

[4] = target: T4, recombinant murine LRP::FLAG expressed in BHK cells transfected with SFV1-moLRP::FLAG (murine, UniProt P14206 2-295); assay: as above
T4 construct: whole, on cells; also called muLRP-FLAG; murine 37 kDa LRP::FLAG
Protocol: as §2

[5] = target: T5, 37 kDa/67 kDa LRP/LR on murine neuroblastoma cells (N2a) (murine, UniProt P14206 2-295); assay: FACS on N2a cells
T5 construct: whole, on cells; also called LRP/LR on the surface of N2a cells

[6] = target: T6, LRP peptide EKAVTKEEFQGEWTA (also: synthesized on a cellulose membrane); assay: peptide array on cellulose membrane, scFv 1:5000
T6 peptide: EKAVTKEEFQGEWTA
Protocol: as §1

[7] = target: T7, LRP peptide VTKEEFQGEWTAPAP (also: synthesized on a cellulose membrane); assay: peptide array on cellulose membrane, scFv 1:5000
T7 peptide: VTKEEFQGEWTAPAP
Protocol: as §1

Measured: binding result

B1: single chain antibody N3 selected from the naive scFv bank (scFv)
scFv: EVQLVESGGGVVQPGRSLRLSCAASGFTFSSYGMHWVRQAPGKGLEWVAVIWYDGSNKYYADSVKGRFTISRDNSKNTLYLQMNSLRAEDTAVYYCATIPRSSFYYGMDVWGQGTTVTVSSGSASAPTLKLEEGEFSEARVQPVLTQPPSASGTPGQRVTISCSGSRSNIGSNTVNWYQQLPGTAPKLLIYGNNQRPSGVPERFSGSKSGTSASLAISGLQSEDEADYYCAAWDDSLTGVLFGGGTKLTVLGQPKAAPSVTLFPPSSAAAGSHHHHHH
notes: VH and VL joined by a peptide linker (YOL), with a C-terminal histidine tag; also called scFv N3; scFvN3
not listed: [6] | [7]
binds: all other assays above

B2: single chain antibody S18 selected from the synthetic scFv bank (scFv)
scFv: QVQLQESGGGLVQPGGSLRLSCAASGFMFSRYAMSWVRQAPGKGPEWVSGISGSGGSTYYADSVKGRFTVSRDNSKNTLYLQMNSLRAEDTAVYYCARHPGFWHFDYWGQGTLVTVSSGSASAPKLEEGEFSEARVSELTQDPAVSVALGQTVRITCQGDSLRNFYASWYQQKPGQAPTLVIYGLSKRPSGIPDRFSASSSGNTASLTITGAQAEDEADYYCNSRDRSGNHVNVLFGGGTKLTVLRQPKAAPSVTLFPPSSAAAGSHHHHHH
notes: VH and VL joined by a peptide linker (YOL), with a C-terminal histidine tag; also called scFv S18; scFvS18
not listed: [1] | [2]
binds: all other assays above
